Assay results as given in patent US20190270817A1.

Assays:
[1] = biological target: cynomolgus monkey IL-21R-FLAG-His (monovalent) (cynomolgus monkey) (UniProt G7Q0S8); experiment: Octet, immobilized monovalent IL-21R-his
[2] = biological target: human IL-21R-FLAG-His (monovalent) (human) (UniProt Q9HBE5); experiment: Octet, immobilized monovalent IL-21R-his
[3] = biological target: IL-21R-Fc (UniProt Q9HBE5); experiment: ForteBio Octet
[4] = biological target: IL-21R on Hut78 T cells (UniProt Q9HBE5); experiment: cell-based or functional assay
[5] = biological target: cynomolgus monkey PD-1(1-167)-FLAG-His (cynomolgus monkey); experiment: Octet, fusion amine-coupled to tips
[6] = biological target: human PD-1(1-170)-FLAG-His (human) (UniProt Q15116); experiment: Octet, fusion amine-coupled to tips
[7] = biological target: human PD-1 on cells (human) (UniProt Q15116); experiment: cell-based or functional assay
[8] = biological target: human IL-21R, recombinant soluble (FLAG-His or Fc, not stated which) (human) (UniProt Q9HBE5); experiment: not stated in the table (Octet per Example 11)
[9] = biological target: human PD-1(1-170)-FLAG-His (human) (UniProt Q15116); experiment: not stated in the table (Octet per Example 11)
[10] = biological target: cynoPD1(1-167)-Flag-His (UniProt Q15116); experiment: Octet
Sequence of cynoPD1(1-167)-Flag-His (Q15116 other isoform, or with tags, fused parts or gaps): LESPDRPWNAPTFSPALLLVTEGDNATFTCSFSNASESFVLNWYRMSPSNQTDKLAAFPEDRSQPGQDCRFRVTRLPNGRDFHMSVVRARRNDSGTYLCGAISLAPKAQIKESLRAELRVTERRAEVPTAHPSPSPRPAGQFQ

Sequence of IL-21R on Hut78 T cells (Q9HBE5 20-538 limits assumed): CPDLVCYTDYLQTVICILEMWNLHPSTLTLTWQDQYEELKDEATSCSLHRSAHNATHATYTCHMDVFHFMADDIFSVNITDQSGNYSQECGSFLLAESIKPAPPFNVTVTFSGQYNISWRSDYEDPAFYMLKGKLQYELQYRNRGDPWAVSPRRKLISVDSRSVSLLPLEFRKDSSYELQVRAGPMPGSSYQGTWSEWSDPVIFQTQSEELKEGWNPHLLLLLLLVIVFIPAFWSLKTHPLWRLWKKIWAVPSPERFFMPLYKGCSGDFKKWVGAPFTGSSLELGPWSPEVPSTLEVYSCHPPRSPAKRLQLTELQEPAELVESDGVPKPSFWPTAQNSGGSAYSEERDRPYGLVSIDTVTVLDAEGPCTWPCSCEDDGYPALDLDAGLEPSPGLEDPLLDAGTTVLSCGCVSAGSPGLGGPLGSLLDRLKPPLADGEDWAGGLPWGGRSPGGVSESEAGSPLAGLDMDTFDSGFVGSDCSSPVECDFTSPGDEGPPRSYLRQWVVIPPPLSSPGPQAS
Sequence of human PD-1(1-170)-FLAG-His (human) (Q15116 21-170 limits assumed): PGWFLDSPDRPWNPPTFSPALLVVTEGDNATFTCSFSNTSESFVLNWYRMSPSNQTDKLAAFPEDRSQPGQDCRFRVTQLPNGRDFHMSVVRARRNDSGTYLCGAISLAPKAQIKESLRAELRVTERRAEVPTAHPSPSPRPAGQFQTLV
Sequence of IL-21R-Fc (Q9HBE5 20-232 limits assumed): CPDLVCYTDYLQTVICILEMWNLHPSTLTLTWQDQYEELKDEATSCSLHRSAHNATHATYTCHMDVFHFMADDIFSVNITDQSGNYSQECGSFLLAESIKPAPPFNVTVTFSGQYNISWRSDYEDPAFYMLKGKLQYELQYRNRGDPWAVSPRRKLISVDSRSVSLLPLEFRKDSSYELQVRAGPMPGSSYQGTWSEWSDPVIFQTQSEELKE
Sequence of human IL-21R-FLAG-His (monovalent) (human) (Q9HBE5 20-232 limits assumed): as above
Sequence of cynomolgus monkey PD-1(1-167)-FLAG-His (cynomolgus monkey) (Q15116 other isoform, or with tags, fused parts or gaps): as the sequence (Q15116 other isoform, or with tags, fused parts or gaps) above
Sequence of human PD-1 on cells (human) (Q15116 25-288 limits assumed): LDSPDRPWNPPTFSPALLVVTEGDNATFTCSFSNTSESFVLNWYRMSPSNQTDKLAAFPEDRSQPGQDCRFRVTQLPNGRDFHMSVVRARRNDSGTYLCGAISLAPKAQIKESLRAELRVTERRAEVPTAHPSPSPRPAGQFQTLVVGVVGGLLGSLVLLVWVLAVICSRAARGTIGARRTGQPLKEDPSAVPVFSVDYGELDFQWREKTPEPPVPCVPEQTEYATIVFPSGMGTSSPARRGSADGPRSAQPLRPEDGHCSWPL
Sequence of human IL-21R, recombinant soluble (FLAG-His or Fc, not stated which) (human) (Q9HBE5 20-232 limits assumed): as the sequence (Q9HBE5 20-232 limits assumed) above

Row | Kd [3] | Substance | further results
1 |  | PD-1 mAb x IL-21 R76E (Mutant 79) | Kd [1]: > 10 nM; Kd [2]: > 10 nM
2 | 0.38 nM | PD-1 mAb x IL-21 Q12N (Mutant 39) (from UniProt Q9HBE4 30-162) | 
3 | 6.6 nM | PD-1 mAb x IL-21 D15S (Mutant C12) (from UniProt Q9HBE4 30-162) | 
4 |  | PD-1 mAb x IL-21 R76A (Mutant 77) | Kd [1]: > 10 nM; Kd [2]: > 10 nM
5 | 0.163 nM | PD-1 mAb x IL-21 D15M (Mutant c9) (from UniProt Q9HBE4 30-162) | 
6 | 0.253 nM | PD-1 mAb x IL-21 K73G (Mutant 66) (from UniProt Q9HBE4 30-162) | 
7 | 0.658 nM | PD-1 mAb x IL-21 K77G (Mutant 94) (from UniProt Q9HBE4 30-162) | 
8 | 0.031 nM | PD-1 mAb x IL-21 Q12E (Mutant 38) (from UniProt Q9HBE4 30-162) | 
9 |  | anti-TIGIT mAb fused to an IL-21 (R5Q:R76E) mutein (dimer) | pSTAT3 EC50, Hut78/TIGIT [4]: 1390 pM
10 | 0.411 nM | PD-1 mAb x IL-21 R11D (Mutant c1) (from UniProt Q9HBE4 30-162) | 
11 | 8.1 nM | PD-1 mAb x IL-21 S113K (Mutant C18) (from UniProt Q9HBE4 30-162) | 
12 | 11 nM | PD-1 mAb x IL-21 L13D (Mutant 43) (from UniProt Q9HBE4 30-162) | 
13 | < 0.26 nM | PD-1 mAb x IL-21 Q12T (Mutant 41) (from UniProt Q9HBE4 30-162) | 
14 | 0.166 nM | PD-1 mAb x IL-21 I14S (Mutant c5) (from UniProt Q9HBE4 30-162) | 
15 | 0.237 nM | PD-1 mAb x IL-21 R5A (Mutant 100) (from UniProt Q9HBE4 30-162) | 
16 | 6.84 nM | PD-1 mAb x IL-21 R9A (Mutant 21) (from UniProt Q9HBE4 30-162) | 
17 | 8.96 nM | PD-1 mAb x IL-21 K72P (Mutant 62) (from UniProt Q9HBE4 30-162) | 
18 | 0.6 nM | PD-1 mAb x IL-21 R76M (Mutant 85) (from UniProt Q9HBE4 30-162) | 
19 | 0.172 nM | PD-1 mAb x IL-21 K73I (Mutant 68) (from UniProt Q9HBE4 30-162) | 

Row | Kd [3] | Substance | further results
20 | 0.265 nM | PD-1 mAb x IL-21 R76Y (Mutant 92) (from UniProt Q9HBE4 30-162) | 
21 | 0.4 nM | PD-1 mAb x IL-21 R76P (Mutant 87) (from UniProt Q9HBE4 30-162) | 
22 | 15.3 nM | PD-1 mAb x IL-21 R76N (Mutant 86) (from UniProt Q9HBE4 30-162) | 
23 | 7.95 nM | PD-1 mAb x IL-21 Q116E (Mutant C21) (from UniProt Q9HBE4 30-162) | 
24 | 0.63 nM | PD-1 mAb x IL-21 R9Y (Mutant 35) (from UniProt Q9HBE4 30-162) | 
25 |  | anti-PD-1 mAb fused to an IL-21 (R5Q:R76E) mutein (monomer) | pSTAT3 EC50, Hut78/PD-1 [4]: 341 pM
26 | 10 nM | PD-1 mAb x IL-21 S70P (Mutant 59) (from UniProt Q9HBE4 30-162) | 
27 | 0.167 nM | PD-1 mAb x IL-21 K73S (Mutant 72) (from UniProt Q9HBE4 30-162) | 
28 | 40 nM | PD-1 mAb x IL-21 R9G (Mutant 24) (from UniProt Q9HBE4 30-162) | 
29 | > 100 nM | PD-1 mAb x IL-21 R9D (Mutant 22) (from UniProt Q9HBE4 30-162) | 
30 | 0.42 nM | PD-1 mAb x IL-21 Q12D (Mutant 37) (from UniProt Q9HBE4 30-162) | 
31 |  | anti-PD-1 mAb x IL-21 R5E:R76A homodimer fusion | pSTAT3 EC50, Hut78 PD-1+ T cells (n1) [4]: 1.98 nM; pSTAT3 EC50, Hut78 PD-1+ T cells (n2) [4]: 1.49 nM; pSTAT3 EC50, Hut78 PD-1- T cells (n1) [4]: > 1000 nM; pSTAT3 EC50, Hut78 PD-1- T cells (n2) [4]: > 1000 nM; Kd [5]: 5.9 nM; Kd [6]: 7 nM; Kd [1]: > 300 nM; Kd [2]: > 300 nM
32 |  | anti-PD-1 mAb x IL-21 R9E:R76A homodimer fusion | pSTAT3 EC50, Hut78 PD-1+ T cells (n1) [4]: 16.6 nM; pSTAT3 EC50, Hut78 PD-1- T cells (n1) [4]: > 1000 nM; pSTAT3 EC50, Hut78 PD-1- T cells (n2) [4]: > 1000 nM; Kd [5]: 5.9 nM; Kd [6]: 8.9 nM; Kd [1]: > 300 nM; Kd [2]: > 300 nM
33 | 0.265 nM | PD-1 mAb x IL-21 S80G (Mutant 98) (from UniProt Q9HBE4 30-162) | 
34 | 0.677 nM | PD-1 mAb x IL-21 I66D (Mutant 51) (from UniProt Q9HBE4 30-162) | 
35 | 0.25 nM | PD-1 mAb x IL-21 K72G (Mutant 61) (from UniProt Q9HBE4 30-162) | 
36 |  | PD1 mAb x R9E:R76A monomer (chimera, mouse IgG1 constant region, C-terminal human IL-21 R9E:R76A) | Hut78 PD1 (+) Interpolated EC50 [4]: 1.97 nM; Hut78 PD-1 (-) Interpolated EC50 [4]: > 1000 nM; PD-1 reporter Interpolated EC50 [7]: 1.61 nM; Kd [8]: > 300 nM; Kd [9]: 2.6 nM
37 | 0.518 nM | PD-1 mAb x IL-21 S70G (Mutant 58) (from UniProt Q9HBE4 30-162) | 
38 | 0.17 nM | PD-1 mAb x IL-21 Q19D (Mutant 46) (from UniProt Q9HBE4 30-162) | 

Row | Kd [3] | Substance | further results
39 | 7.11 nM | PD-1 mAb x IL-21 I66P (Mutant 53) (from UniProt Q9HBE4 30-162) | 
40 | 0.0395 nM | PD-1 mAb x IL-21 V69D (Mutant 54) (from UniProt Q9HBE4 30-162) | 
41 | 0.439 nM | PD-1 mAb x IL-21 D15A (Mutant c6) (from UniProt Q9HBE4 30-162) | 
42 | 0.163 nM | PD-1 mAb x IL-21 K75G (Mutant 75) (from UniProt Q9HBE4 30-162) | 
43 | 0.435 nM | PD-1 mAb x IL-21 K73D (Mutant 64) (from UniProt Q9HBE4 30-162) | 
44 | 0.249 nM | PD-1 mAb x IL-21 D15E (Mutant c7) (from UniProt Q9HBE4 30-162) | 
45 |  | anti-PD-1 mAb x IL-21 R5Q:R76E homodimer fusion | Kd [1]: > 300 nM; Kd [2]: > 300 nM
46 | 1.23 nM | PD-1 mAb x IL-21 P78D (Mutant 96) (from UniProt Q9HBE4 30-162) | 
47 |  | Nivo huIgG1 mAb | Kd [10]: 3.5 nM
48 | 0.094 nM | PD-1 mAb x IL-21 I16D (Mutant 44) (from UniProt Q9HBE4 30-162) | 
49 | 0.0525 nM | PD-1 mAb x IL-21 K73A (Mutant 63) (from UniProt Q9HBE4 30-162) | 
50 | 4 nM | PD-1 mAb x IL-21 I8S (Mutant 20) (from UniProt Q9HBE4 30-162) | 
51 | 11 nM | PD-1 mAb x IL-21 D15N (Mutant C10) (from UniProt Q9HBE4 30-162) | 
52 | 0.9 nM | PD-1 mAb x IL-21 R65P (Mutant 50) (from UniProt Q9HBE4 30-162) | 
53 | 12 nM | PD-1 mAb x IL-21 R76D (Mutant 78) (from UniProt Q9HBE4 30-162) | 
54 | 0.235 nM | PD-1 mAb x IL-21 K72D (Mutant 60) (from UniProt Q9HBE4 30-162) | 
55 | 0.237 nM | PD-1 mAb x IL-21 S70Y (Mutant 101) (from UniProt Q9HBE4 30-162) | 
56 | 5.47 nM | PD-1 mAb x IL-21 D15V (Mutant C14) (from UniProt Q9HBE4 30-162) | 
57 | 4.55 nM | PD-1 mAb x IL-21 I66G (Mutant 52) (from UniProt Q9HBE4 30-162) | 
